One substance from US20110300066A1 can be followed below.

This assay addresses CD20 (human) (UniProt P11836). The assay can be described thus: cell-based or functional assay.

Chain of CD20 (human) (P11836 whole entry): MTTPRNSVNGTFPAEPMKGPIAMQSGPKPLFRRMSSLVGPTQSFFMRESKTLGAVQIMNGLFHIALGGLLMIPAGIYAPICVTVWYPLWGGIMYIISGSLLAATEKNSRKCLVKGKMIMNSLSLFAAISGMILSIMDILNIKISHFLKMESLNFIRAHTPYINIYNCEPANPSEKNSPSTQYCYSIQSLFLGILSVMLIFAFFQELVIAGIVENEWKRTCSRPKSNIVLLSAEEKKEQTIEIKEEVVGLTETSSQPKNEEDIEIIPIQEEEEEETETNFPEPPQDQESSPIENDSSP

20-Rap (antibody) returned an in vitro cytotoxicity EC50, Daudi and Ramos cells of 0.0001 µM; an in vitro cytotoxicity EC50, Jeko-1 cells of 20 µM.
